For 3 molecules, Kd results are on record in patent US20210371484A1 (SYLUS, published 2021).

First the molecules themselves.
B1: SY-2 (peptide)
peptide: LQLHVLKAVSGLRTLTMIRRALG
notes: Synthetic 23-mer made as a monomer by solid phase synthesis; also called erythropoietin-induced peptide
B2: SY-3 (peptide)
peptide: LQLHVLKAVAGLRTLTMIRRALA
notes: as for B1
B3: SY-1 (peptide)
peptide: LQLHVLKAVSGLRTLTTLLRALG
notes: Synthetic 23-mer made as a monomer by solid phase synthesis; No terminal protecting group is stated for the peptide as tested; also called erythropoietin-induced peptide

This test addresses T1, Soluble mouse EPOR chimera protein (mouse, UniProt P14753 25-249).
T1 construct: Bought reagent (R&D Systems), amine-coupled to a carboxymethylated dextran SPR chip; it says only 'soluble' and 'chimera'; also called Receptor mouse EPOR chimera protein; erythropoietin receptor
T1 sequence (looked up): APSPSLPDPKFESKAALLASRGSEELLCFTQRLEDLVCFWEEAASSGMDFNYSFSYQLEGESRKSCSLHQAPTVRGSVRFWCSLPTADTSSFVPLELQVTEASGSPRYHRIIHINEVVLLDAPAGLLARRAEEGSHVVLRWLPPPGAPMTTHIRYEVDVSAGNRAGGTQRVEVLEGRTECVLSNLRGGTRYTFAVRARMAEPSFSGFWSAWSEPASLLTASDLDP
The test can be described thus: SPR (Reichert SR 7500C), mouse EPOR chimera amine-coupled on chip, peptide flowed at 5, 2.5 and 1.25 uM. As for the experimental part:
Specifically, the real-time SPR analysis was performed using Reichert SPR Biosensor SR 7500C equipment (Reichert Inc., NY, USA). Receptor mouse EPOR chimera protein (Soluble mouse EPOR chimera protein)(R&D Systems, Minneapolis, Minn., USA) was covalently bonded to a chip (BR-1005-39, Pharmacia Biosensor AB) coated with carboxy methylated dextran matrix by an amine coupling procedure using an amine coupling kit (BR-1000-50, GE Healthcare, USA) according to the manufacturer's manual. Peptides having concentrations of 5, 2.5 and 1.25 μM according to the present disclosure and scrambled peptides were tested by flowing at a flow rate of 5 μl/minute. In addition, the experiment was independently repeated to increase the accuracy. In addition, DMSO was flowed at 5 μl/minute to normalize the signal. After sufficiently inducing the binding of the peptide of an aspect to the receptor, regeneration was induced by injecting 20 μl/minute of 25 mM acetic acid into a sensor chip.
As a reminder, the Kd is the equilibrium constant for the complex coming apart. Higher therefore signals weaker binding. The molecule B1 came in with a Kd of 1550 µM.

As to B2, the Kd was found to be 2160 µM.

As to B3, binding was put at a Kd of 1410 µM.
